Assay: soluble on expression in E. coli; label from the status in PepcDB or PDB records

Sequence | soluble on expression in E. coli
MRRSKMTYLIGVDCGGTHIVGQTWTTAPEHLVQSVTGGPGNVVLDYSAAVTNLTTVLDQLTAAIPASQLGLILIGIAGIETAGRADQVQQTITQRYHANTQVISDAKLALLNGLAGADGALVIAGTGSVVYGRQAGKFLRVGGWGYVLGDEGSAYDISKRALKQVLTQTDNGQTSQLTAPLLAQLKVTDIAAAVQKFYAQDRQTNAQLAQLIAKLAEQQNSEAITVLVTSAQALAQQVVTLYQRFAESWPQRVALSGSVLQHNRLVRDTLTTTVHQSIPTIAFNDITTNNAHAVIYWHRWTQEEINSLEHHHHHH | not soluble
MRRVDQPRPPGTPFGLREQTTSNADAPARTAPPAHPAPERPTGMLGGLTRYVPGDRSGRPPAMPAAAETSRRPTTSARPLPYGGSGSAARMNEAAGHPLRMPQLPQLSDIERARFHSVTTDSQHLRPVRPRMPPPVGASPLRRSTALRPYHDVLSQWQRHYNADRNRWHSAWRQANSNNPQIETRTGRALKATADLLEDATQPGRVALELRSVPLPQFPDQAFRLSHLQHMTIDAAGLMELPDTMQQFAGLETLTLARNPLRALPASIASLNRLRELSIRACPELTELPEPLASTDASGEHQGLVNLQSLRLEWTGIRSLPASIANLQNLKSLKIRNSPLSALGPAIHHLPKLEELDLRGCTALRNYPPIFGGRAPLKRLILKDCSNLLTLPLDIHRLTQLEKLDLRGCVNLSRLPSLIAQLPANCIILVPPHLQAQLDQHRPVARPAEPGRTGPTTPALSPSAAGDRAGPSSSATASELLLTAALERIEDTAQAMLSTVIDEERNPFLEGAPSYLPGKRPTDVTTFGQVPALRDMLAESRDLEFLQRVSDMAGPSPRIEDPSEEGLARHYTNVSNWKAQKSAHLGIVDHLGQFVYHEGSPLDVATLAKAVQMWKTRELIVHAHPQDRARFPELAVHIPEQVSDDSDSEQQTSPEPSGHQ | soluble
MRRVMIPKPGGGERPLGIPTIRDRVVQAAAKIVLEPIFEADFEDGAYGYRPRRNAVDAVKEVHRLMCRGYTDVVDADLSKYFDTIPHSDLLKSVARRIVDRNVLRLIKLWLRVPVEERDSNGKRRMSGGKSNKCGTPQGGVMVPLEHHHHHH | not soluble
MRSEAKNQKPTAYPMKGIDDLPLHEIIEPALDITSPQVACVGIGVRAVCNYDCVYCYAGHSDKRGDMSVEQYFDVMEQAAELGVKTIIMTGAGGKSEPGLFKGLLPILERASSLGMSTAMFTNGSQFGDDKVARIHNLSAVELAHKIRELKVSLFIACETLEPDLYSNITKKPIAPFQTGLINLIAAGFIGTPGEPTSVTISSVIMRQNFEELPVLQKFAHNNGWQYICKFPTLVGSALDHPELFFSPEEAAERHSIVAELRDKPETLTVTHSGAEYCLVNQVGMSFDNLGTPLNCLSGCEITSRKDMNLKSMRLADIVLLKKHLAHQGIGNCPKKAVFYDFKQPKLEAAAFHGLS | not soluble
MRSFDFAPLHRASIGFDQIADLMDRVMSSDVGQPSYPPYNIEKTAADAYRISIAVAGFAETDLSVEVKENALVISARKAADEAERTFLHRGIATRAFERRFTLADHVRVTGASHENGMLHIDLKREIPEALKPRRIEIASVKSADTPERIEAKAVN | not soluble
MRSFPKAKEAFSEGEKVSFGVHRLHVGDAREVLASFPEASVHLVVTSPPYWTLKRYEDTPGQLGHIEDYEAFLDELDRVWREVFRLLVPGGRLVIVVGDVAVARRRFGRHLVFPLHADIQVRCRKLGFDNLNPIIWHKHTNASLEVEGRGVFLGKPYEPGAIIKTEIEYILMQRKPGGYRKPTQEQREKSRLPKEDFHRFFRQIWDDIPGESTKDHPAPFPLELAERLVRMFSFVGDVVLDPFAGTGTTLIAAARWGRRALGVELVPRYAQLAKERFAREVPGFSLEVLDGATHPRR | soluble
MRSLIGMTFLNSSVGQRRLRQNGIVLRLGPVVADRRRATLPHRQGHCLDRQDLETLLLWLQRHFLCVPLEHLLEGPAPACLRIALSVDGNPAELAEQVYPLLERYEMPASAFIGGDPRSWREAVAETLWQADATAAGPLLELLEGYSGAALMAVFERTGDDQRRSRNLDLLLRKLERLDPASQQALHAACPVPAPYSAGDWERVRRLENSGLLRFGLRGQEPHPSAGLCAEDCLGRAHRQLQQHCAAPLPVFCQARTTPAAQPGLRAALGRLGYRFAFGARNGLVDTRCDPLDLPRIEVDAAIAARPGRLAWHIYRGARP | not soluble

Source: the DeepSol protein solubility set
